Data taken from US20180127487A1 (Sanofi, published 2018).
Where two headings read alike, the source gives them in different places.

What was measured:
recombinant human FcRn [1] = molecular target: T1, recombinant human FcRn (human, UniProt P55899 24-297; P61769 21-119); assay: SPR, human FcRn immobilised; relative to mAb2
T1 construct: also called human FcRn receptor

recombinant human FcRn [2] = molecular target: T1, recombinant human FcRn; assay: SPR (Biacore T200), human FcRn immobilised on CM5 chip
recombinant mouse FcRn [3] = molecular target: T2, recombinant mouse FcRn (mouse, UniProt Q61559 22-297; P01887 21-119); assay: SPR (Biacore T200), mouse FcRn immobilised on CM5 chip
T2 sequence 1: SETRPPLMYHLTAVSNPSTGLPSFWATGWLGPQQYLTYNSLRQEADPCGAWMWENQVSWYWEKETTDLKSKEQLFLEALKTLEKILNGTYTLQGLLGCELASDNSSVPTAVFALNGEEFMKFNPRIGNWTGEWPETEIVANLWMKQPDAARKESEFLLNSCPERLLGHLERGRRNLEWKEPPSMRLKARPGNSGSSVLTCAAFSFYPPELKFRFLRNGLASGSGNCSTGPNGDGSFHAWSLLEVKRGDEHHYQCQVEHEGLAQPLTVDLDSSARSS
T2 sequence 2: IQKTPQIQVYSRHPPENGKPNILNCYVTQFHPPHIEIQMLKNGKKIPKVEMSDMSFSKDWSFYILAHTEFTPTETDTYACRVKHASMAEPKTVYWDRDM

Antigen (E2) = Antigen (E2) (Chikungunya virus); assay: SPR (Biacore T200), His-tagged antigen captured by anti-His antibody, 1:1 model
[4] = molecular target: T3, Recombinant human HPC4-tagged FcγRIII-F158 (human, UniProt P08637 17-208); assay: SPR (Biacore 3000), HPC4-tagged FcγRIII-F158 captured on anti-HPC4 CM5 chip, antibody injected 2 min, in duplicate; concentration (900, 300 or 100 nM in the methods) not printed on the sheet
T3 construct: also called FcγRIIIaF158; not shown: HPC4 tag
T3 sequence (P08637 17-208): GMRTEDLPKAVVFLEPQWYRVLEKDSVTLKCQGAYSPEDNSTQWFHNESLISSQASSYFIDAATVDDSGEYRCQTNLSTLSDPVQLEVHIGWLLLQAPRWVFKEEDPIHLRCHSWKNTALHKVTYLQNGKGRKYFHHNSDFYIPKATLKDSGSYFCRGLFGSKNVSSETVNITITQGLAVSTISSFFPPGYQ

[5] = molecular target: T4, Recombinant human HPC4-tagged FcγRIIIa-V158 (human, UniProt P08637 17-208); assay: SPR (Biacore 3000), HPC4-tagged FcγRIIIa-V158 captured on anti-HPC4 CM5 chip, antibody injected 2 min, in duplicate; concentration (900, 300 or 100 nM in the methods) not printed on the sheet
T4 construct: Valine at 158 is a polymorphism, named without an old residue; also called Val158; not shown: HPC4 tag
T4 sequence (P08637 17-208 F176V): as the sequence (P08637 17-208) above, with F160V counted along it

[6] = molecular target: T5, His-tagged CHIKV E2 LR2006 (Chikungunya virus strain LR2006, UniProt Q8JUX5 326-1220)
T5 construct: also called CHIKV pE2-E1 antigen derived from CHIKV strain LR2006; pE2-E1 target

recombinant mouse FcRn [7] = molecular target: T2, recombinant mouse FcRn; assay: SPR, mouse FcRn immobilised; relative to mAb2
recombinant mouse FcRn [8] = molecular target: T2, recombinant mouse FcRn; assay: SPR, mouse FcRn immobilised; relative to mAb1
recombinant human FcRn [9] = molecular target: T1, recombinant human FcRn; assay: SPR, human FcRn immobilised; relative to mAb1
[10] = molecular target: T4, Recombinant human HPC4-tagged …; assay: SPR (Biacore 3000), HPC4-tagged FcγRIIIa-V158 captured on anti-HPC4 CM5 chip, antibody injected 2 min, in duplicate; concentration (900, 300 or 100 nM in the methods) not printed on the sheet; remark: listed apart in the source
[11] = molecular target: T3, Recombinant human HPC4-tagged …; assay: SPR (Biacore 3000), HPC4-tagged FcγRIII-F158 captured on anti-HPC4 CM5 chip, antibody injected 2 min, in duplicate; concentration (900, 300 or 100 nM in the methods) not printed on the sheet; remark: listed apart in the source
recombinant human FcRn [12] = molecular target: T1, recombinant human FcRn; assay: SPR (Biacore T200), human FcRn immobilised on CM5 chip; remark: listed apart in the source
recombinant mouse FcRn [13] = molecular target: T2, recombinant mouse FcRn; assay: SPR (Biacore T200), mouse FcRn immobilised on CM5 chip; remark: listed apart in the source

T1 sequence (P55899 24-297 limits assumed, chain 1 of 2): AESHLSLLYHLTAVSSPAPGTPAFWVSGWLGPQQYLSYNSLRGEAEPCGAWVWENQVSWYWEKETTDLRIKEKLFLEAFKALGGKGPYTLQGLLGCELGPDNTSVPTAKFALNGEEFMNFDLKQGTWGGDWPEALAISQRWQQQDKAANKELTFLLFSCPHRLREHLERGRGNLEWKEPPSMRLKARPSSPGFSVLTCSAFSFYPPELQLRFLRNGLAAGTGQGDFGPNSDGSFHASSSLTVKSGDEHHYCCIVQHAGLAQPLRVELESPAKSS
T1 sequence (P61769 21-119 limits assumed, chain 2 of 2): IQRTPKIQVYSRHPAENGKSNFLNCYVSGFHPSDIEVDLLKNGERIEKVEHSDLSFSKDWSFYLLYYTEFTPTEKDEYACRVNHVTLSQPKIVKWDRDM

B1: mAb2 (antibody)
heavy: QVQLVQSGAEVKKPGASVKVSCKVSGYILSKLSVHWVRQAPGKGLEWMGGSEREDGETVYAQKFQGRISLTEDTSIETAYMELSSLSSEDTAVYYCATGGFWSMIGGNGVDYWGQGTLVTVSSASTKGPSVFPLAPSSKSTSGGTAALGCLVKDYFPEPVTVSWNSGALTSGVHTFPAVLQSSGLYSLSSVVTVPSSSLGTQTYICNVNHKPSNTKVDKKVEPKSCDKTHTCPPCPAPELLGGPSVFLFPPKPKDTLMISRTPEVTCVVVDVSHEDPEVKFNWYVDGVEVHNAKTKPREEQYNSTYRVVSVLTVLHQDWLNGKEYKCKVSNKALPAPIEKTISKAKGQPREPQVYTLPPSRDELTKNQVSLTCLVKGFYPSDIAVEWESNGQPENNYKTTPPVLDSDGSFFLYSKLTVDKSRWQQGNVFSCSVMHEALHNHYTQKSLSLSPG
light: QAVVTQSPSSLPASVGDRVTITCRASQDIRNNLGWYQQKPGKAPERLIYGTSNLQSGVPSRFSGSGSGTEFTLTISSLQPEDFATYYCLQHNSYPPTFGRGTKVEIKRTVAAPSVFIFPPSDEQLKSGTASVVCLLNNFYPREAKVQWKVDNALQSGNSQESVTEQDSKDSTYSLSSTLTLSKADYEKHKVYACEVTHQGLSSPVTKSFNRGEC
notes: also called parent antibody mAb2
With B1 the “Affinity Increase (fold)” value (recombinant human FcRn [1]) was 1 fold, the Kd (recombinant human FcRn [2]) was 328 nM and the Kd (recombinant mouse FcRn [3]) was 22 nM. The Kd (Antigen (E2)) was 0.13 nM, the binding result [4] was “binds” and the binding result [5] was “binds”. For the same binder, the binding result [6] was “binds” and the “Affinity Increase (fold)” value (recombinant mouse FcRn [7]) was 1 fold.

B2: mAb12 (antibody, V domains shown)
VH: QVQLVQSGAEVKKPGASVKVSCKVSGYILSKLSVHWVRQAPGKGLEWMGGSEREDGETVYAQKFQGRISLTEDTSIETAYMELSSLSSEDTAVYYCATGGFWSMIGGNAVDYWGQGTLVTVSS
VL: QAVVTQSPSSLPASVGDRVTITCRASQDIRNNLGWYQQKPGKAPERLIYGTSNLQSGVPSRFSGSGSGTEFTLTISSLQPEDFATYYCLQHNSYPPTFGRGTKVEIKR
notes: also called mAb2G109A; mAb2 G109A
With B2 the Kd (Antigen (E2)) was 0.5 nM and the binding result [6] was “binds”.

B3: M104A/N108Q (antibody, V domains shown)
VH: QVQLVQSGAEVKKPGASVKVSCKVSGYILSKLSVHWVRQAPGKGLEWMGGSEREDGETVYAQKFQGRISLTEDTSIETAYMELSSLSSEDTAVYYCATGGFWSAIGGQGVDYWGQGTLVTVSS
VL: QAVVTQSPSSLPASVGDRVTITCRASQDIRNNLGWYQQKPGKAPERLIYGTSNLQSGVPSRFSGSGSGTEFTLTISSLQPEDFATYYCLQHNSYPPTFGRGTKVEIKR
notes: also called mAb2 M104A/N108Q; double mutant of mAb2 in CDRH3
B3: no binding [6].

B4: mAb10 (antibody, V domains shown)
VH: QVQLVQSGAEVKKPGASVKVSCKVSGYILSKLSVHWVRQAPGKGLEWMGGSEREDGETVYAQKFQGRISLTEDTSIETAYMELSSLSSEDTAVYYCATGGFWSIIGGNGVDYWGQGTLVTVSS
VL: QAVVTQSPSSLPASVGDRVTITCRASQDIRNNLGWYQQKPGKAPERLIYGTSNLQSGVPSRFSGSGSGTEFTLTISSLQPEDFATYYCLQHNSYPPTFGRGTKVEIKR
notes: also called mAb2M104I
In the case of B4, the Kd (Antigen (E2)) is reported as 0.94 nM and the binding result [6] is reported as “binds”.

B5: mAb2 M104A (antibody, V domains shown)
VH: QVQLVQSGAEVKKPGASVKVSCKVSGYILSKLSVHWVRQAPGKGLEWMGGSEREDGETVYAQKFQGRISLTEDTSIETAYMELSSLSSEDTAVYYCATGGFWSAIGGNGVDYWGQGTLVTVSS
VL: QAVVTQSPSSLPASVGDRVTITCRASQDIRNNLGWYQQKPGKAPERLIYGTSNLQSGVPSRFSGSGSGTEFTLTISSLQPEDFATYYCLQHNSYPPTFGRGTKVEIKR
notes: also called variant comprising an alanine at position 8 of its CDRH3
B5: no binding [6].

B6: M104A/G109A (antibody, V domains shown)
VH: QVQLVQSGAEVKKPGASVKVSCKVSGYILSKLSVHWVRQAPGKGLEWMGGSEREDGETVYAQKFQGRISLTEDTSIETAYMELSSLSSEDTAVYYCATGGFWSAIGGNAVDYWGQGTLVTVSS
VL: QAVVTQSPSSLPASVGDRVTITCRASQDIRNNLGWYQQKPGKAPERLIYGTSNLQSGVPSRFSGSGSGTEFTLTISSLQPEDFATYYCLQHNSYPPTFGRGTKVEIKR
notes: also called mAb2 M104A/G109A; double mutant of mAb2 in CDRH3
B6: no binding [6].

B7: mAb3 (antibody)
heavy: not shown
light: QAVVTQPPSVSGAPGQRVTISCTGSSSNIGADYNVHWYQLLPGTAPKLLIYGNTNRPSGVPDRFSGSKSGTSASLAITGLQAEDEADYYCQSYDSSLSASVFGGGTKLTVLGQPKAAPSVTLFPPSSEELQANKATLVCLISDFYPGAVTVAWKADSSPVKAGVETTTPSKQSNNKYAASSYLSLTPEQWKSHRSYSCQVTHEGSTVEKTVAPTECS
notes: also called mAb1A
In the case of B7, the “Affinity Increase (fold)” value (recombinant mouse FcRn [8]) is reported as 2.1 fold, the “Affinity Increase (fold)” value (recombinant human FcRn [9]) is reported as 7.7 fold and the binding result [10] is reported as “binds”. For the same binder, the binding result [11] was “binds”, the Kd (recombinant human FcRn [12]) was 45 nM and the Kd (recombinant mouse FcRn [13]) was 9.3 nM.

B8: mAb4 (antibody)
heavy: QVQLVQSGAEVKKPGASVKVSCKASGYSFTSYGISWVRQAPGQGLEWMGWISTYKGYTQYAQNFQGRVTITTDTPATTVYMELRSLRSDDTAVYYCARVLSETGYFYYYYYGMDVWGQGTLVTVSSASTKGPSVFPLAPSSKSTSGGTAALGCLVKDYFPEPVTVSWNSGALTSGVHTFPAVLQSSGLYSLSSVVTVPSSSLGTQTYICNVNHKPSNTKVDKKVEPKSCDKTHTCPPCPAPELLGGPSVFLFPPKPKDTLMISRTPEVTCVVVDVSHEDPEVKFNWYVDGVEVHNAKTKPREEQYNSTYRVVSVLAVLHQDWLNGKEYKCKVSNKALPAPIEKTISKAKGQPREPQVYTLPPSRDELTKNQVSLTCLVKGFYPSDIAVAWESNGQPENNYKTTPPVLDSDGSFFLYSKLTVDKSRWQQGNVFSCSVMHEALHAHYTQKSLSLSPG
light: QAVVTQPPSVSGAPGQRVTISCTGSSSNIGADYNVHWYQLLPGTAPKLLIYGNTNRPSGVPDRFSGSKSGTSASLAITGLQAEDEADYYCQSYDSSLSASVFGGGTKLTVLGQPKAAPSVTLFPPSSEELQANKATLVCLISDFYPGAVTVAWKADSSPVKAGVETTTPSKQSNNKYAASSYLSLTPEQWKSHRSYSCQVTHEGSTVEKTVAPTECS
notes: also called mAb1AAA
In the case of B8, the “Affinity Increase (fold)” value (recombinant mouse FcRn [8]) is reported as 2.3 fold, the “Affinity Increase (fold)” value (recombinant human FcRn [9]) is reported as 11.3 fold and the binding result [10] is reported as “binds”. For the same binder, the binding result [11] was “binds”, the Kd (recombinant human FcRn [12]) was 31 nM and the Kd (recombinant mouse FcRn [13]) was 8.4 nM.

B9: mAb5 (antibody)
heavy: not shown
light: QAVVTQPPSVSGAPGQRVTISCTGSSSNIGADYNVHWYQLLPGTAPKLLIYGNTNRPSGVPDRFSGSKSGTSASLAITGLQAEDEADYYCQSYDSSLSASVFGGGTKLTVLGQPKAAPSVTLFPPSSEELQANKATLVCLISDFYPGAVTVAWKADSSPVKAGVETTTPSKQSNNKYAASSYLSLTPEQWKSHRSYSCQVTHEGSTVEKTVAPTECS
notes: also called mAb1QL
With B9 the “Affinity Increase (fold)” value (recombinant mouse FcRn [8]) was 3.3 fold, the “Affinity Increase (fold)” value (recombinant human FcRn [9]) was 13 fold and the binding result [10] was “binds”. The binding result [11] was “binds”, the Kd (recombinant human FcRn [12]) was 27 nM and the Kd (recombinant mouse FcRn [13]) was 5.9 nM.

B10: mAb6 (antibody)
heavy: QVQLVQSGAEVKKPGASVKVSCKASGYSFTSYGISWVRQAPGQGLEWMGWISTYKGYTQYAQNFQGRVTITTDTPATTVYMELRSLRSDDTAVYYCARVLSETGYFYYYYYGMDVWGQGTLVTVSSASTKGPSVFPLAPSSKSTSGGTAALGCLVKDYFPEPVTVSWNSGALTSGVHTFPAVLQSSGLYSLSSVVTVPSSSLGTQTYICNVNHKPSNTKVDKKVEPKSCDKTHTCPPCPAPELLGGPSVFLFPPKPKDTLYITREPEVTCVVVDVSHEDPEVKFNWYVDGVEVHNAKTKPREEQYNSTYRVVSVLTVLHQDWLNGKEYKCKVSNKALPAPIEKTISKAKGQPREPQVYTLPPSRDELTKNQVSLTCLVKGFYPSDIAVEWESNGQPENNYKTTPPVLDSDGSFFLYSKLTVDKSRWQQGNVFSCSVMHEALHNHYTQKSLSLSPG
light: QAVVTQPPSVSGAPGQRVTISCTGSSSNIGADYNVHWYQLLPGTAPKLLIYGNTNRPSGVPDRFSGSKSGTSASLAITGLQAEDEADYYCQSYDSSLSASVFGGGTKLTVLGQPKAAPSVTLFPPSSEELQANKATLVCLISDFYPGAVTVAWKADSSPVKAGVETTTPSKQSNNKYAASSYLSLTPEQWKSHRSYSCQVTHEGSTVEKTVAPTECS
notes: also called mAb1YTE
In the case of B10, the “Affinity Increase (fold)” value (recombinant mouse FcRn [8]) is reported as 10.4 fold, the “Affinity Increase (fold)” value (recombinant human FcRn [9]) is reported as 16.3 fold and the binding result [10] is reported as “binds”. For the same binder, the binding result [11] was “binds”, the Kd (recombinant human FcRn [12]) was 21 nM and the Kd (recombinant mouse FcRn [13]) was 1.9 nM.
